These results are taken from patent publication US8669345 (Biogen, dated 2014).

The target in assay [1] is T1, peptide LDALSDDAELR (Scrambled Fragment #2, deaminated).
T1 peptide: LDALSDDAELR
Nature of the assay: MS of peptides bound by 7E11.

Assay [2] addresses T2, peptide LDLSDNAQLR (Wild-type Fragment) (rat).
T2 peptide: LDLSDNAQLR
Nature of the assay: MS of peptides bound by 7E11.

Assay [3] concerns the target T3, peptide LDLSDDAELR (deaminated wild-type fragment).
T3 construct: deamination at Asn115 and Gln117
T3 peptide: LDLSDDAELR
As to the kind of experiment: MS of peptides bound by 7E11.

For assay [4], the target named is T4, peptide LDLSSDNAQLR (Scrambled Fragment #3).
T4 peptide: LDLSSDNAQLR
Nature of the assay: MS of peptides bound by 7E11.

Assay [5] addresses T5, peptide LDLASDDAELR (Scrambled Fragment #1, deaminated).
T5 peptide: LDLASDDAELR
As to the kind of experiment: MS of peptides bound by 7E11.

The target in assay [6] is T6, peptide LDLASDNAQLR (Scrambled Fragment #1).
T6 peptide: LDLASDNAQLR
As to the kind of experiment: MS of peptides bound by 7E11.

Assay [7] deals with T7, peptide LDALSDNAQLR (Scrambled Fragment #2).
T7 peptide: LDALSDNAQLR
Nature of the assay: MS of peptides bound by 7E11.

The target of assay [8] is T8, peptide LDLSDNAALRVVDPTT (Q117A).
T8 construct: also called Gln17Ala (so in the source)
T8 peptide: LDLSDNAALRVVDPTT
As to the kind of experiment: ELISA, peptides immobilized on MaxiSorp plate. For orientation: ELISA stands for enzyme-linked immunosorbent assay.

In assay [9] the target is T9, peptide LDLSDNAQLHVVDPTT (R119H).
T9 construct: also called Arg119His; R11911 (so in the source)
T9 peptide: LDLSDNAQLHVVDPTT
Nature of the assay: ELISA, peptides immobilized on MaxiSorp plate.

The target of a further assay is T10, peptide DNAQLRVVDPTT (rat).
T10 peptide: DNAQLRVVDPTT
Nature of the assay: endoprotease Asp-N digest of p-617.

For assay [10], the target named is T11, 15 kDa acid fragment of sNgR310 (aa 27-aa 122) (rat, UniProt Q99M75 27-122).
T11 construct: acid cleavage product of rat sNgR310
T11 chain: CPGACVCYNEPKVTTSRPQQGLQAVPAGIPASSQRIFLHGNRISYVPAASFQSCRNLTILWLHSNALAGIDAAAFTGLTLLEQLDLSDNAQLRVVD
As to the kind of experiment: western blot. How it is done:
(§1) A recombinant fragment of the rat NgR1 that contains all 8 LRR domains and the N- and C-terminal caps (sNgR310) was treated with either acid or cyanogen bromide (CNBr) and separated the fragments by gel electrophoresis.
(In general: A western blot detects proteins with antibodies after separation by electrophoresis.)

The target of assay [11] is T12, 10 kDa CNBr fragment of sNgR310 (aa 241-aa 310) (rat, UniProt Q99M75 241-310).
T12 construct: CNBr cleavage product of rat sNgR310
T12 chain: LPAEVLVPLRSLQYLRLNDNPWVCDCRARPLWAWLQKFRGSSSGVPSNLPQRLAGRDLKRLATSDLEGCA
Nature of the assay: western blot. How it is done: as §1

In assay [12] the target is T13, 35 kDa CNBr fragment of sNgR310 (aa 27-aa 229) (rat, UniProt Q99M75 27-229).
T13 construct: CNBr cleavage product of rat sNgR310; also called 33/35 kDa doublet
T13 chain: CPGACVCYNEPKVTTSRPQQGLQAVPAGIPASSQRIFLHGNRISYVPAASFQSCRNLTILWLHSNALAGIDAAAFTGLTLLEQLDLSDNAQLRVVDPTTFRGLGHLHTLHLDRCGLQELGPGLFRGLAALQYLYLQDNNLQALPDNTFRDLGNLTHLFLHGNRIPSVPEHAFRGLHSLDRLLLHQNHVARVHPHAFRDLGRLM
Nature of the assay: western blot. The procedure: as §1

Assay [13] concerns the target T14, tryptic peptide AAAFTGLTLLEQLDLSDNAQLR (rat).
T14 construct: tryptic digest peptide of rat sNgR310
T14 peptide: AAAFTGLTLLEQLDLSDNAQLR
Nature of the assay: tryptic digest of sNgR310, MS and sequence analysis.

The target in assay [14] is T15, Nogo receptor-1 (species and construct not stated).
T15 sequence (Q9BZR6 27-447, species assumed, looked up): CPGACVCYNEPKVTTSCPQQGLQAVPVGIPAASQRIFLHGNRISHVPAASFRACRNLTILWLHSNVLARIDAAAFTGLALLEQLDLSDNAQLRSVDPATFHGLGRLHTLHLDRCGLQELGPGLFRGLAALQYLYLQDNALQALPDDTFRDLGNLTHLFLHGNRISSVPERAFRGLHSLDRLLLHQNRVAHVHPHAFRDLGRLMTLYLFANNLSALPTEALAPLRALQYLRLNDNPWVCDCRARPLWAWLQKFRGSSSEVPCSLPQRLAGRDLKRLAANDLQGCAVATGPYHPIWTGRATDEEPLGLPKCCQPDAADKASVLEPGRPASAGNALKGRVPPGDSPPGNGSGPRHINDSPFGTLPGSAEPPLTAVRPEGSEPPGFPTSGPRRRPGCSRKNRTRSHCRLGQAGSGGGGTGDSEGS
As to the kind of experiment: surface plasmon resonance (BIAcore) per the text; NgR1 construct not stated. A general note: SPR reads the build-up and loss of mass on a sensor chip optically.

B1: monoclonal antibody 7E11 (antibody, V domains shown)
VH: VQLQESGAELVMPGASVKMSCKASGYTFTDYWMHWVKQRPGQGLEWIGAIDPSDSYSSYNQNFKGKATLTVDGSSSTAYMQLSSLTSEDSAVYYCARRITEAGAWFAYWGQGTTVT
VL: DVVMTQTPLSLPVSLGDQASISCRSSQSLVHSNGNTYLHWYLQKPGQSPKLLIYKVSNRFSGVPDRFSGSGSGTDFTLKISRVDAEDLGVYFCSQSTHVPFTFGGGTKLEIKR
notes: murine IgG1, kappa; immunogen: peptide of rat NgR1 residues 110-125; also called mAb 7E11; HB 7E11 (ATCC PTA-4587)
As usually defined, the Kd is a measure of binding affinity in units of concentration. Read a low Kd as tighter binding. With B1, the binding result in assay [1], in assay [2], in assay [3], in assay [4], in assay [5] and in [6] was “binds” in each case. For the same molecule, the binding result is given as “binds” in [7]; “binds” with peptide DNAQLRVVDPTT; “binds” in [10]; “no binding” in [11]; “binds” in assay [12]; “binds” in [13]. The “fold increase of EC50 against the original peptide” value turned out to be 30 fold in [8] and 25 fold in assay [9]. This molecule gave an equilibrium dissociation constant (Kd) in [14] of 100 nM.
